Experiment [1] addresses T1, human TIGIT protein (human, UniProt Q495A1 22-141, limits assumed).
T1 construct: Recombinant protein (Genentech) used in ELISA screening and as SPR analyte; also called TIGIT antigen
T1 sequence: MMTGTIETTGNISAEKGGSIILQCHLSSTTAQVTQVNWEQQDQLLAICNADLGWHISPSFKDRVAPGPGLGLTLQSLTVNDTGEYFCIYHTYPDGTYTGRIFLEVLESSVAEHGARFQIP
The experiment can be described thus: SPR, captured mAb. The source says:
(§1) To prevent unwanted pyroglutamate formation for clones 4.1A4, 4.1 D3, and 7.4A3 (also referred to as 1A4, 1 D3, and 4A3, respectively) and to resolve the issue of unpaired cysteine residues for clones 4.1A4 and 7.4A3, the following optimized anti-TIGIT antibody variants were generated: 4.1A4.C96S.Q1E, 4.1A4.C96Y.Q1E, 4.1 D3.Q1E, 7.4A3.C96S.Q1E, and 7.4A3.C96Y.Q1E (also referred to as 1A4.C96S.Q1E, 1A4.C96Y.Q1E, 1 D3.Q1E, 4A3.C96S.Q1E, and 4A3.C96Y.Q1E, respectively). As described below in Table 2, the affinities of these five optimized variants for human and cynomolgus monkey (cyno) TIGIT were then determined by Surface Plasmon Resonance (SRP) (BIACORE™ analysis) and compared to that of their respective parental clones.
(§2) Briefly, a series S CM5 biosensor chip was activated with N-ethyl-N′-(3-dimethylaminopropyl)-carbodiimide hydrochloride (EDC) and N-hydroxysuccinimide (NHS) reagents according to the supplier's (GE Healthcare Biosciences, Piscataway, N.J.) instructions, and a human antibody capture kit was applied to couple goat anti-human Fc IgGs in order to achieve approximately 10,000 response units (RU) on each flow cell, followed by blocking un-reacted groups with 1M ethanolamine.
(§3) (flow rate: 30 μl/min) with no regeneration between injections. The sensorgrams were recorded and evaluated by BIAcore™ T200 Evaluation Software (version 2.0) after subtraction of reference cell signal. Association rates (kₒₙ) and dissociation rates (koff) were calculated using a simple one-to-one Langmuir binding model. The equilibrium dissociation constant (KD) was calculated as the ratio koff/kₒₙ.
On the technique in general: In SPR one partner is held on a chip, and binding of the other changes the refractive index at the surface.

The target of experiment [2] is T2, cynomolgus monkey (cyno) TIGIT protein (cynomolgus monkey, UniProt A0A7N9I9V4 89-209). The experiment can be described thus: SPR, captured mAb.
From the text: as §1, §2, §3

Experiment [3] deals with T1, human TIGIT protein. The experiment can be described thus: SPR, bivalent affinity.
The target in experiment [4] is T2, cynomolgus monkey (cyno) TIGIT protein. The experiment is described as follows: SPR, bivalent affinity.
Experiment [5] has as its target T1, human TIGIT protein. The experiment is described as follows: SPR, monovalent affinity.
For experiment [6], the target named is T2, cynomolgus monkey (cyno) TIGIT protein. The experiment is described as follows: SPR, monovalent affinity.
Experiment [7] has as its target T3, cynomolgus TIGIT on CHO cells (cynomolgus monkey, UniProt A0A7N9I9V4 89-312).
T3 construct: whole, on cells; also called CHO-cyTIGIT; cyTIGIT
The experiment can be described thus: FACS on CHO cells expressing cyno TIGIT, FITC anti-hIgG detection. On the procedure: Additional in vitro binding studies of the OMT- and SD-derived anti-TIGIT antibody clones were conducted. The OMT- and SD-derived anti-TIGIT clones were tested for binding to human and cyno TIGIT expressed on the surface of CHO cells by FACS analysis. CHO cells were transfected with full-length human TIGIT (CHO-hTIGIT) or cynomologous TIGIT (CHO-cyTIGIT). The TIGIT-expressing CHO cells were incubated with each anti-TIGIT antibody at the indicated concentrations and then detected via a FITC-labeled anti-hIgG antibody (see FIG. 1A) using standard methods. The results, shown in Table 6 and FIGS. 1B-1E, corroborate the results from the BIACORE™ analysis, described above.

Experiment [8] concerns the target T3, cynomolgus TIGIT on CHO cells. The experiment can be described thus: FACS blocking assay: labelled PVR-Fc (blocked ligand; text: cyPVR, scheme of FIG. 4A prints hPVR.Fc) on CHO cells expressing cyno TIGIT. On the procedure: (§4) These studies were further validated in CHO-TIGIT PVR blocking experiments in which TIGIT-expressing CHO cells were incubated with labeled PVR-Fc fusion protein in the presence of anti-TIGIT antibody or an human IgG1 control (FIG. 4A).

The target in experiment [9] is T1, human TIGIT protein. The experiment is described as follows: SPR, captured mAb. The procedure:
as §2, §3
(§5) The first humanized versions, h6B2, L1H1, h10A5.L1H1, h7E7, L1H1, and h15C8.L1H1, which contain both rat CDRs and framework residues at Vernier positions, and the fully humanized versions, h6B2.L2H5, h10A5.L4H4, h7E7.L5H9, and h15C8.L5H9, which contain only rat CDRs were subject to BIAcore affinity measurement by comparison with original rat antibodies, rat6B2, rat10A5, rat7E7 and rat 15C8. For binding affinity determinations of TIGIT antibodies against human TIGIT, cynomolgus monkey TIGIT and human alanine-scanned TIGIT mutants by single-cycle kinetics, Surface Plasmon Resonance (SRP) measurement with a BIACORE™-T200 instrument was used, as described above.
The source holds these as a separate data set.

The target in experiment [10] is T2, cynomolgus monkey (cyno) TIGIT protein. The experiment is described as follows: SPR, captured mAb. The procedure: as §2, §3, §5
The source holds these as a separate data set.

Experiment [11] addresses T4, hTIGIT mutant H76A (human, UniProt Q495A1).
T4 sequence (TIGIT, looked up): T1 sequence with H55A
The experiment is described as follows: SPR (BIACORE), N=2.

In experiment [12] the target is T4, hTIGIT mutant H76A. The experiment is described as follows: SPR (BIACORE) KD normalized to WT, N=2.
For experiment [13], the target named is T3, cynomolgus TIGIT on CHO cells. The experiment is described as follows: FACS blocking assay: labelled PVR-Fc (blocked ligand) on CHO cells expressing cyno TIGIT. The procedure: as §4

What is called koff is a measure of how fast the partners let go of each other. One may read the kon as the rate constant with which the complex forms. What is called EC50 (read off the curve) is the midpoint of the concentration-response curve.

Residue numbers refer to the chain shown, from its start. In names and notes the source's numbering stands. Where two headings read alike, the source gives them in different places.

T3 sequence (A0A7N9I9V4 entry or part of it): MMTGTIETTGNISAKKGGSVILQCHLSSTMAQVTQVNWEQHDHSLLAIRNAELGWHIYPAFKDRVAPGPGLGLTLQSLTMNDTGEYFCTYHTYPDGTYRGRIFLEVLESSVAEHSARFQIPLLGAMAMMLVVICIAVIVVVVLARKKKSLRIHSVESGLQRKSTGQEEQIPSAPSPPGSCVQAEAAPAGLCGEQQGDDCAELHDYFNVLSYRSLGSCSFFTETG
T2 sequence (A0A7N9I9V4 entry or part of it): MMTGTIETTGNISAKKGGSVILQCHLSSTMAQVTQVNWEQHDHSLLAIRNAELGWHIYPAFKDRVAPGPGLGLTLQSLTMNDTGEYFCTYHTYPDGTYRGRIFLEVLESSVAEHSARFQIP

B1: 7.4A3 (antibody, V domains shown)
VH: QVQLVQSGSDLKKPGASVRVSCKASGYTFTSYPMNWVRQAPGHGLEWMGWINTNTGNPTYVQGFTGRFVFSLDTSVNTAYLQISSLKAEDTAVYFCARTGGHTYDSYAFDVWGQGTMVTVSS
VL: DIQLTQSPTFLSASVGDRVTITCRASQVISSSLAWYQQNPGKAPKLLIYAASTLQSGVPSRFSGSGSGTEFTLTISSLQPEDFVTYYCQHLHGYPCNFGQGTKVEIK
notes: OMT rat-derived human antibody; also called 7.4A3.Q1.C96
For the molecule B1, the Kd with human TIGIT protein [1] is 3.44 nM; in experiment [2], 2.09 nM; in the experiment with human TIGIT protein [3] it was 0.098 nM; in experiment [4], at most 0.05 nM; in the experiment with human TIGIT protein [5], 3.6 nM; in experiment [6], 1.6 nM. Further, the results for the koff (in the experiment with human TIGIT protein [1]; in [2]) were 0.00104 s⁻¹ and 0.000699 s⁻¹, respectively. Moreover, the kon in the experiment with human TIGIT protein [1] stood at 302000 M⁻¹ s⁻¹; in experiment [2], 334000 M⁻¹ s⁻¹. Besides, the “EC50 (read off the curve)” value in experiment [7] was about 1 nM. The “IC50 (read off the curve)” value in [8] is about 0.3 nM.

B2: 7.4A3.C96Y.Q1E (antibody, V domains shown)
VH: B1 VH with Q1E
VL: B1 VL with C96Y
notes: No entry is tied to this variant by name; built from 7.4A3 with the two named changes (Q1E in the heavy chain, C96Y in HVR-L3); also called 7.4A3.Q1E.C96Y
Take B2: the Kd with human TIGIT protein [1] amounted to 98 nM; in experiment [2], 35.6 nM; in the experiment with human TIGIT protein [5], 98.1 nM; in experiment [6], 35.5 nM. Also, the koff was 0.0365 s⁻¹ with human TIGIT protein [1] and 0.014 s⁻¹ in [2]. For the same molecule, the kon in the experiment with human TIGIT protein [1] is 372000 M⁻¹ s⁻¹; in experiment [2], 395000 M⁻¹ s⁻¹.

B3: h7E7.L1H1 (antibody, V domains shown)
VH: EVQLVQSGAEVKKPGASVKVSCKASGYTFTEYSIYWVRQAPGQRLEIIGRIDPKNGRTYYVDKFKNRATLTADTSASTAYMELSSLRSEDTAVYFCTRIYGFYFDFWGQGTLVTVSS
VL: DIQLTQSPSFLSASVGDRVTITCKGSQNVNKYLVWYQQKPGKAPKLLIYNTDNLQSGIPSRFSGSGSGTEYTLTISSLQPEDFATYFCYQYNNGFTFGQGTKVEIK
notes: First humanized version; FR/HVR pieces in order; also called h1.7E7.L1H1
Consider B3, for which the Kd worked out at 0.23 nM in the experiment with human TIGIT protein [9], 0.36 nM in experiment [10], 0.33 nM with human TIGIT protein [5] and 0.51 nM in [6]. In addition, the koff in the experiment with human TIGIT protein [9] came to 0.000476 s⁻¹; in experiment [10] it was 0.000152 s⁻¹. Further, the kon with human TIGIT protein [9] came to 2.06e+06 M⁻¹ s⁻¹; in experiment [10], 418000 M⁻¹ s⁻¹.

B4: h7E7.L5aH9a (antibody, V domains shown)
VH: B3 VH with I48M, A68V, L70I, A72R, F95Y, T97A
VL: B3 VL with I58V, F87Y
notes: Final humanized 7E7; keeps rat VH I47 and VL Y71; FR/HVR pieces
In [10], B4 returned a Kd of 0.31 nM, a koff of 0.000182 s⁻¹ and a kon of 591000 M⁻¹ s⁻¹. The Kd with hTIGIT mutant H76A [11] came to 1 nM. Besides, in the experiment with hTIGIT mutant H76A [12], the “Binding affinity drop vs. WT” value turned out to be 2.5 fold.

B5: 4.1A4.C96S.Q1E (antibody, V domains shown)
VH: EVQLVQSGSELKKPGASVKVSCKASGYTLTNYPMNWVRQAPGRGLEWMGWINTNTGSPAYAQDFTERFVFSLDTSVTTAYLQISSLKAEDTAVYYCARTAITSVYHFDYWGQGTLVTVSS
VL: DIQLTQSPSFLSASVGDRVTITCRASQGISSYLAWYQQKPGKAPRVLIYGATTLQSGVPSRFSGSESGTEFTLTISSLQPEDLATYYCQKLNSHPSSFGQGTKVEIK
notes: FR/HVR pieces in order; also called 4.1A4.Q1E.C96S
In [2], B5 showed a Kd of 12.6 nM, an off-rate constant (koff) of 0.0169 s⁻¹ and a kon of 1.34e+06 M⁻¹ s⁻¹. The molecule also yielded a Kd in experiment [6] of 12.6 nM. Also, the “EC50 (read off the curve)” value in [7] was about 0.5 nM. Besides, in experiment [8], the “IC50 (read off the curve)” value is about 0.09 nM.

B6: 4.1A4.C96Y.Q1E (antibody, V domains shown)
VH: B5 VH
VL: B5 VL with S96Y
notes: FR/HVR pieces in order; also called 4.1A4.Q1E.C96Y
Take B6: the Kd in experiment [6] is over 100 nM. The binding result in experiment [13] is recorded as “no binding (tested: about 20 nM)”.

B7: h10A5.L1H1 (antibody, V domains shown)
VH: EVTLKESGPALVKPTQTLTLTCTFSGFSLTTYGMGVSWIRQPPGKALEWLASIWWNGNTYYNPSLRSRLTVTKDTSKNQAVLTMTNMDPVDTATYYCAHTGGAVITWFAYWGQGTLVTVSS
VL: EIVMTQSPATLSVSPGERATLSCKASQSVGKNIAWYQQKPGQSPRLLIYYASNRYTGVPARFSGSGSGTEFTLTISSLQSEDFAVYYCQHIYNSPYPFGQGTKVEIK
notes: Humanized; FR/HVR pieces in order; also called h1.10A5.L1H1
Consider B7, for which the Kd turned out to be 0.52 nM in the experiment with human TIGIT protein [9], 0.86 nM in experiment [10], 0.52 nM with human TIGIT protein [5] and 0.86 nM in [6]. For the same molecule, the results for the off-rate constant (koff) (with human TIGIT protein [9]; in [10]) were 0.00238 s⁻¹ and 0.00127 s⁻¹, respectively. The kon with human TIGIT protein [9] is 4.57e+06 M⁻¹ s⁻¹; in experiment [10] it was 1.47e+06 M⁻¹ s⁻¹.

The record behind these values is US20220064286A1 (Genentech, published 2022).
